Laboratory results published in paper PMC6555819, “Comprehensive study of nuclear receptor DNA binding provides a revised framework for understanding receptor specificity”.
Residue numbers refer to the chain shown, from its start.

B1: NRC3_wobSeed76_DR3_A16T_o1 (dsDNA)
DNA 1: GCCCTACTGGGCCAATAAGGTCATTGATGCCGATAAGCGATTGACAGCGTAGAATGAAGG
DNA 2: CCTTCATTCTACGCTGTCAATCGCTTATCGGCATCAATGACCTTATTGGCCCAGTAGGGC
B2: NRC3_wobSeed45_DR1_T11C_o1 (dsDNA)
DNA 1: GCTGTCAAAGCTCAAAGGTAACGTAAGTATCCACACGCGATTGACAGCGTAGAATGAAGG
DNA 2: CCTTCATTCTACGCTGTCAATCGCGTGTGGATACTTACGTTACCTTTGAGCTTTGACAGC
B3: NRC3_wobSeed15_DR0_G16C_o1 (dsDNA)
DNA 1: GCCGAACTAGGTCAACGACAGTGAATCTCCGCACGCGCGATTGACAGCGTAGAATGAAGG
DNA 2: CCTTCATTCTACGCTGTCAATCGCGCGTGCGGAGATTCACTGTCGTTGACCTAGTTCGGC
B4: NRC3_wobSeed99_DR4_G20C_o1 (dsDNA)
DNA 1: GCTCTCGGAGGACACGAAACGTCAGAGCTCGACATCGCGATTGACAGCGTAGAATGAAGG
DNA 2: CCTTCATTCTACGCTGTCAATCGCGATGTCGAGCTCTGACGTTTCGTGTCCTCCGAGAGC
B5: NRC3_wobSeed86_DR3_G15T_o1 (dsDNA)
DNA 1: GCGCTGCTAGGTCATGTTGGTCAGCTAACGGGTACGGCGATTGACAGCGTAGAATGAAGG
DNA 2: CCTTCATTCTACGCTGTCAATCGCCGTACCCGTTAGCTGACCAACATGACCTAGCAGCGC
B6: NRC3_wobSeed58_DR2_A7T_o1 (dsDNA)
DNA 1: GCATCGTAAGGTCGTGAGGTGAGTATACAGAAAGGCGCGATTGACAGCGTAGAATGAAGG
DNA 2: CCTTCATTCTACGCTGTCAATCGCGCCTTTCTGTATACTCACCTCACGACCTTACGATGC
B7: NRC3_wobSeed110_DR4_A9G_o1 (dsDNA)
DNA 1: GCTCTGCTGGGTCAACGATGGTCAGCTAATCTGCTAGCGATTGACAGCGTAGAATGAAGG
DNA 2: CCTTCATTCTACGCTGTCAATCGCTAGCAGATTAGCTGACCATCGTTGACCCAGCAGAGC
B8: NRC3_wobSeed112_DR4_G5T_o1 (dsDNA)
DNA 1: GCTATCCTAGGTCAGATCGGGCCAGTATACGCTATAGCGATTGACAGCGTAGAATGAAGG
DNA 2: CCTTCATTCTACGCTGTCAATCGCTATAGCGTATACTGGCCCGATCTGACCTAGGATAGC
B9: NRC3_wobSeed28_DR1_T19A_o1 (dsDNA)
DNA 1: GCCCTACTGGGCCAAAGGACATTGATTCCAATGCTCGCGATTGACAGCGTAGAATGAAGG
DNA 2: CCTTCATTCTACGCTGTCAATCGCGAGCATTGGAATCAATGTCCTTTGGCCCAGTAGGGC
B10: NRC3_wobSeed34_DR1_T19A_o1 (dsDNA)
DNA 1: GCATCGAAAGGTCGAAGGAGAGTATACCCACCCGAAGCGATTGACAGCGTAGAATGAAGG
DNA 2: CCTTCATTCTACGCTGTCAATCGCTTCGGGTGGGTATACTCTCCTTCGACCTTTCGATGC
B11: NRC3_wobSeed34_DR1_G17A_o1 (dsDNA)
DNA 1: B10 DNA 1 with G17A, A19T
DNA 2: B10 DNA 2 with T42A, C44T
B12: NRC3_wobSeed125_DR5_A14C_o1 (dsDNA)
DNA 1: GCCCTTACGGGTCCCTGACAGGTTATAGCATTTGGAGCGATTGACAGCGTAGAATGAAGG
DNA 2: CCTTCATTCTACGCTGTCAATCGCTCCAAATGCTATAACCTGTCAGGGACCCGTAAGGGC
B13: NRC3_wobSeed123_DR5_A17C_o1 (dsDNA)
DNA 1: GCCCTCGGAGGACAACCGGAGGTCAGAGCTGCCAGAGCGATTGACAGCGTAGAATGAAGG
DNA 2: CCTTCATTCTACGCTGTCAATCGCTCTGGCAGCTCTGACCTCCGGTTGTCCTCCGAGGGC
B14: NRC3_wobSeed123_DR5_G21T_o1 (dsDNA)
DNA 1: B13 DNA 1 with C17A, G21T
DNA 2: B13 DNA 2 with C40A, G44T
B15: NRC3_wobSeed75_DR3_A25C_o1 (dsDNA)
DNA 1: GCTCTCGGAGGACACGAAGGTCAGCGCTTTCCAGAGGCGATTGACAGCGTAGAATGAAGG
DNA 2: CCTTCATTCTACGCTGTCAATCGCCTCTGGAAAGCGCTGACCTTCGTGTCCTCCGAGAGC
B16: NRC3_wobSeed74_DR3_C13G_o1 (dsDNA)
DNA 1: GCTCTAGTTGGTGACGGAGGTCACACACGACGGGTAGCGATTGACAGCGTAGAATGAAGG
DNA 2: CCTTCATTCTACGCTGTCAATCGCTACCCGTCGTGTGTGACCTCCGTCACCAACTAGAGC
B17: NRC3_wobSeed10_DR0_A9T_o1 (dsDNA)
DNA 1: GCATCGAATGGTCGAGGTGAGTATAGAGAAAGGGAAGCGATTGACAGCGTAGAATGAAGG
DNA 2: CCTTCATTCTACGCTGTCAATCGCTTCCCTTTCTCTATACTCACCTCGACCATTCGATGC
B18: NRC3_wobSeed39_DR1_G17A_o1 (dsDNA)
DNA 1: GCCGAACTAGGTCAAAAGACAGTGAAAGGCGACGTAGCGATTGACAGCGTAGAATGAAGG
DNA 2: CCTTCATTCTACGCTGTCAATCGCTACGTCGCCTTTCACTGTCTTTTGACCTAGTTCGGC
B19: NRC3_wobSeed3_DR0_A22G_o1 (dsDNA)
DNA 1: GCGCTCGGAGGACAAGGTCAGGGCTTTGTCCGTAGAGCGATTGACAGCGTAGAATGAAGG
DNA 2: CCTTCATTCTACGCTGTCAATCGCTCTACGGACAAAGCCCTGACCTTGTCCTCCGAGCGC
B20: NRC3_wobSeed72_DR2_A9G_o1 (dsDNA)
DNA 1: GCTCGAGTGGGTTACGGGGGCATTCAGGGATGAAGAGCGATTGACAGCGTAGAATGAAGG
DNA 2: CCTTCATTCTACGCTGTCAATCGCTCTTCATCCCTGAATGCCCCCGTAACCCACTCGAGC
B21: NRC3_wobSeed72_DR2_G17T_o1 (dsDNA)
DNA 1: B20 DNA 1 with G9A, G17T
DNA 2: B20 DNA 2 with C44A, C52T
B22: NRC3_wobSeed72_DR2_C15G_o1 (dsDNA)
DNA 1: B20 DNA 1 with G9A, C15G
DNA 2: B20 DNA 2 with G46C, C52T
B23: NRC3_wobSeed62_DR2_T16G_o1 (dsDNA)
DNA 1: GCTCTGCTAGGTCAGGTGGTCAGCTAACGAGCTGCCGCGATTGACAGCGTAGAATGAAGG
DNA 2: CCTTCATTCTACGCTGTCAATCGCGGCAGCTCGTTAGCTGACCACCTGACCTAGCAGAGC
B24: NRC3_wobSeed64_DR2_o1 (dsDNA)
DNA 1: GCTAGCCTAGGTCATTGGGCCAGTATAGTACGCATCGCGATTGACAGCGTAGAATGAAGG
DNA 2: CCTTCATTCTACGCTGTCAATCGCGATGCGTACTATACTGGCCCAATGACCTAGGCTAGC
B25: NRC3_wobSeed64_DR2_C21T_o1 (dsDNA)
DNA 1: B24 DNA 1 with C21T
DNA 2: B24 DNA 2 with G40A
B26: NRC3_wobSeed64_DR2_G17T_o1 (dsDNA)
DNA 1: B24 DNA 1 with G17T
DNA 2: B24 DNA 2 with C44A
B27: NRC3_wobSeed36_DR1_A16C_o1 (dsDNA)
DNA 1: GCCCGACTGGGGCAACGGTTACCATACTCAGTACGAGCGATTGACAGCGTAGAATGAAGG
DNA 2: CCTTCATTCTACGCTGTCAATCGCTCGTACTGAGTATGGTAACCGTTGCCCCAGTCGGGC
B28: NRC3_wobSeed93_DR3_C13G_o1 (dsDNA)
DNA 1: GCAGTCAAAGTTGATCTAGGTAACGTAAGATATGCTGCGATTGACAGCGTAGAATGAAGG
DNA 2: CCTTCATTCTACGCTGTCAATCGCAGCATATCTTACGTTACCTAGATCAACTTTGACTGC
B29: NRC3_wobSeed38_DR1_A25C_o1 (dsDNA)
DNA 1: GCCCTGCTAGGTCAATGGTCAGCTCAAGCAGCTCGCGCGATTGACAGCGTAGAATGAAGG
DNA 2: CCTTCATTCTACGCTGTCAATCGCGCGAGCTGCTTGAGCTGACCATTGACCTAGCAGGGC
B30: NRC3_wobSeed16_DR0_G11T_o1 (dsDNA)
DNA 1: GCCAGCCTAGTTCAGGGCCAGTATAGGAGGAACGTTGCGATTGACAGCGTAGAATGAAGG
DNA 2: CCTTCATTCTACGCTGTCAATCGCAACGTTCCTCCTATACTGGCCCTGAACTAGGCTGGC
B31: NRC3_wobSeed57_DR2_T19G_o1 (dsDNA)
DNA 1: GCATCTCTAGGTAACAAGGTCAGTGAAAGAGAGGACGCGATTGACAGCGTAGAATGAAGG
DNA 2: CCTTCATTCTACGCTGTCAATCGCGTCCTCTCTTTCACTGACCTTGTTACCTAGAGATGC
B32: NRC3_wobSeed82_DR3_G10C_o1 (dsDNA)
DNA 1: GCATCGAAACGTCGACGAGGTGAGTATACACCGTTTGCGATTGACAGCGTAGAATGAAGG
DNA 2: CCTTCATTCTACGCTGTCAATCGCAAACGGTGTATACTCACCTCGTCGACGTTTCGATGC
B33: NRC3_wobSeed5_DR0_A15G_o1 (dsDNA)
DNA 1: GCCCTTACGGGTCAGGGTTATAGCACGGGTGGTACGGCGATTGACAGCGTAGAATGAAGG
DNA 2: CCTTCATTCTACGCTGTCAATCGCCGTACCACCCGTGCTATAACCCTGACCCGTAAGGGC

These binders were tested against RARg:RXRa (Homo sapiens, UniProt P13631;P19793 full;full) (assay: no ligand; PBM; 270 nM : 90 nM RXRa; PBS pH 7.4, 2% milk, 0.02% Triton X-100, 1 mM DTT, BSA, 0.4 mg/ml salmon testes DNA). Conditions: tags: His kept;His cleaved; copies: 1;1; label: surface-attached array probe.
Chain of RARg:RXRa (P13631 whole entry, chain 1 of 2): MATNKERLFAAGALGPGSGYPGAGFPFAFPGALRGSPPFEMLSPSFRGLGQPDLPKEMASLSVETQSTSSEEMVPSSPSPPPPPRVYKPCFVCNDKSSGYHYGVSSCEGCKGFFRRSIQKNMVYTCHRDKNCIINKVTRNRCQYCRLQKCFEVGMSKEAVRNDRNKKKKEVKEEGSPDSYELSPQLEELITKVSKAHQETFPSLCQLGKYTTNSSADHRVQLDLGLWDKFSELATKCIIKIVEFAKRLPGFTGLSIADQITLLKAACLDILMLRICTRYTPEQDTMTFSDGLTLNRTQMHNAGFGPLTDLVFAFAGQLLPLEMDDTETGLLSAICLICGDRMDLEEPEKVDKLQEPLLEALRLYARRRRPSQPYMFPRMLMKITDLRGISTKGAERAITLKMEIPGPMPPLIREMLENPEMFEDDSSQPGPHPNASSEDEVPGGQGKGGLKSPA
Chain of RARg:RXRa (P19793 whole entry, chain 2 of 2): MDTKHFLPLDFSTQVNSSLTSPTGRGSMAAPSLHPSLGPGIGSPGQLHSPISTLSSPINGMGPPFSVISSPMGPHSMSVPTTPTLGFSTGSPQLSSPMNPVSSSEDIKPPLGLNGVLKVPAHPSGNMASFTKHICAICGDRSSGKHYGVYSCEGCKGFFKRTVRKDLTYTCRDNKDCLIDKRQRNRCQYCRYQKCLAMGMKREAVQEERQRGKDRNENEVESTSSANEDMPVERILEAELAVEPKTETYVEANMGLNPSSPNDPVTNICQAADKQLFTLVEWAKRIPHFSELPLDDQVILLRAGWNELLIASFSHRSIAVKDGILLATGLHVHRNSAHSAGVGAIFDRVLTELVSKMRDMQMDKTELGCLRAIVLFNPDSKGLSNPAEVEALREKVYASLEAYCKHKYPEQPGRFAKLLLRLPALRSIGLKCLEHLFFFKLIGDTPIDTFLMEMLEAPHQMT
Procedure, shortened: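 For binding z-scores, the reference was random background probes on custom Agilent 4×180K protein-binding microarrays. These arrays were incubated 1 h with ligand-free nuclear receptor dimers in PBS pH 7.4, 2% milk, 0.02% Triton X-100, 1 mM DTT, 0.2 mg/mL BSA and 0.4 mg/ml salmon testes DNA. Fluorescence was scanned after antibody detection of each partner (one per run) and regression-normalized.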
With B1 the binding signal was 3.2 PBM z-score against 500 random probes.
B2 was tested, and the binding signal was 0.5 PBM z-score against 500 random probes.
B3 was tested, and the binding signal was 3.81 PBM z-score against 500 random probes.
With B4 the binding signal was 0.45 PBM z-score against 500 random probes.
B5 was tested, and the binding signal was 3.75 PBM z-score against 500 random probes.
In the case of B6, the binding signal is reported as 3.36 PBM z-score against 500 random probes.
B7 was tested, and the binding signal was 3.45 PBM z-score against 500 random probes.
B8 was tested, and the binding signal was 3.16 PBM z-score against 500 random probes.
In the case of B9, the binding signal is reported as 0.42 PBM z-score against 500 random probes.
In the case of B10, the binding signal is reported as 3.65 PBM z-score against 500 random probes.
For B11, the binding signal was 3.26 PBM z-score against 500 random probes.
B12 was tested, and the binding signal was 0.36 PBM z-score against 500 random probes.
In the case of B13, the binding signal is reported as 3.83 PBM z-score against 500 random probes.
With B14 the binding signal was 0.5 PBM z-score against 500 random probes.
For B15, the binding signal was 3.49 PBM z-score against 500 random probes.
B16 was tested, and the binding signal was 3.87 PBM z-score against 500 random probes.
In the case of B17, the binding signal is reported as 0.4 PBM z-score against 500 random probes.
In the case of B18, the binding signal is reported as 3.41 PBM z-score against 500 random probes.
In the case of B19, the binding signal is reported as 3.61 PBM z-score against 500 random probes.
For B20, the binding signal was 3.31 PBM z-score against 500 random probes.
In the case of B21, the binding signal is reported as 0.43 PBM z-score against 500 random probes.
B22 was tested, and the binding signal was 3.1 PBM z-score against 500 random probes.
In the case of B23, the binding signal is reported as 3.05 PBM z-score against 500 random probes.
With B24 the binding signal was 3.78 PBM z-score against 500 random probes.
In the case of B25, the binding signal is reported as 3.53 PBM z-score against 500 random probes.
For B26, the binding signal was 3.69 PBM z-score against 500 random probes.
B27 was tested, and the binding signal was 0.38 PBM z-score against 500 random probes.
For B28, the binding signal was 0.37 PBM z-score against 500 random probes.
With B29 the binding signal was 3.58 PBM z-score against 500 random probes.
With B30 the binding signal was 0.39 PBM z-score against 500 random probes.
For B31, the binding signal was 3 PBM z-score against 500 random probes.
B32 was tested, and the binding signal was 0.46 PBM z-score against 500 random probes.
With B33 the binding signal was 3.72 PBM z-score against 500 random probes.
